The target of experiment [1] is YdgR from E. coli, wild type (E. coli MG1655) (UniProt P77304).
For experiment [2], the target named is YdgR-Tyr292Ala (E. coli MG1655) (UniProt P77304).
The target of experiment [3] is YdgR-Tyr292Phe (E. coli MG1655) (UniProt P77304).
Experiment [4] deals with YdgR-Tyr38Phe (E. coli MG1655) (UniProt P77304).
The target in experiment [5] is YdgR-Tyr71Phe (E. coli MG1655) (UniProt P77304).
Experiment [6] deals with YjdL Tyr113Phe (E. coli) (UniProt P39276).
For experiment [7], the target named is YjdL Tyr21Phe (E. coli) (UniProt P39276).
In experiment [8] the target is YjdL Tyr25Phe (E. coli) (UniProt P39276).
Experiment [9] concerns the target YjdL Tyr58Phe (E. coli) (UniProt P39276).
The target in experiment [10] is YjdL from E. coli, wild type (E. coli) (UniProt P39276).
Experiment [11] concerns the target YjdL-Ala281Phe (E. coli) (UniProt P39276).
In experiment [12] the target is YjdL-Trp278Phe (E. coli) (UniProt P39276).
In experiment [13] the target is YjdL from E. coli, wild type (E. coli) (UniProt P39276). The source holds these as a separate data set.
A further experiment concerns the target YjdL-Asp392Ser (E. coli) (UniProt P39276).
The target of experiment [14] is YjdL Tyr113Phe (E. coli) (UniProt P39276). This is another data set of the same source.
Experiment [15] has as its target YjdL Tyr21Phe (E. coli) (UniProt P39276). The source holds these as a separate data set.
Experiment [16] addresses YjdL Tyr25Phe (E. coli) (UniProt P39276). This is another data set of the same source.
The target in experiment [17] is YjdL Tyr58Phe (E. coli) (UniProt P39276). This is another data set of the same source.
The target of experiment [18] is YjdL from E. coli, wild type (E. coli) (UniProt P39276). This is another data set of the same source.
The target in experiment [19] is YjdL-Ala281Phe (E. coli) (UniProt P39276). The source holds these as a separate data set.
In experiment [20] the target is YjdL-Trp278Phe (E. coli) (UniProt P39276). The source holds these as a separate data set.

The values below come from article PMC3478282, “Probing the Putative Active Site of YjdL: An Unusual Proton-Coupled Oligopeptide Transporter from E. coli” (PLoS ONE, 2012).

Where two headings read alike, the source gives them in different places.

In the case of Ala-Ala (peptide), the IC50 of inhibition of β-Ala-Lys(AMCA) uptake into E. coli cells (0.2 mM substrate, 5 min, pH 6.5) is 0.39 mM in experiment [1]; 0.59 mM in experiment [2]; 0.15 mM in experiment [3]; 0.37 mM in [5]; 1.9 mM in the experiment with YjdL Tyr113Phe (E. coli) [6]; 4.5 mM in the experiment with YjdL Tyr21Phe (E. coli) [7]. In addition, the IC50 of inhibition of β-Ala-Lys(AMCA) uptake into E. coli cells (0.2 mM substrate, 5 min, pH 6.5) with YjdL Tyr25Phe (E. coli) [8] is more than 50 mM; in [10], 2.8 mM; with YjdL-Ala281Phe (E. coli) [11] it was more than 50 mM; with YjdL-Trp278Phe (E. coli) [12] it was 9.9 mM. Moreover, the IC50 of inhibition of β-Ala-Lys(AMCA) uptake into E. coli cells (0.5 mM substrate, 15 min, pH 6.5) was 1.04 mM in experiment [1], 0.92 mM in [4], 28.1 mM with YjdL Tyr58Phe (E. coli) [9] and 2.2 mM in experiment [10]. The β-Ala-Lys(AMCA) uptake (0.5 mM) left with 50 mM competitor, E. coli cells, pH 6.5 in experiment [13] is less than 10%.

For Ala-Ala-Ala (peptide), the β-Ala-Lys(AMCA) uptake (0.5 mM) left with 50 mM competitor, E. coli cells, pH 6.5 in experiment [13] was determined as 55%; with YjdL-Asp392Ser (E. coli) it was 34%.

As for Ala-Lys (peptide), the IC50 of inhibition of β-Ala-Lys(AMCA) uptake into E. coli cells (0.2 mM substrate, 5 min, pH 6.5) with YjdL Tyr113Phe (E. coli) [14] was determined as 0.34 mM; in the experiment with YjdL Tyr21Phe (E. coli) [15] it was 0.45 mM; with YjdL Tyr25Phe (E. coli) [16], 0.4 mM; in experiment [18] it was 0.28 mM; with YjdL-Ala281Phe (E. coli) [19], 0.26 mM; in the experiment with YjdL-Trp278Phe (E. coli) [20], 0.38 mM. For the same substance, the results for the IC50 of inhibition of β-Ala-Lys(AMCA) uptake into E. coli cells (0.5 mM substrate, 15 min, pH 6.5) (with YjdL Tyr58Phe (E. coli) [17]; in experiment [18]) were more than 50 mM and 0.89 mM, respectively. For the same substance, in [13], the β-Ala-Lys(AMCA) uptake (0.5 mM) left with 50 mM competitor, E. coli cells, pH 6.5 is less than 10%.
